According to patent US12012615B2, “Method of making induced pluripotent stem cells using p53 inhibitors” (Kyoto University, priority 2008, dated 2024):

Tests used:
[1] = tested on: HDF; test: iPS cell generation from HDF with p53-regulated genes, with or without the p53 shRNA; assay type: cell-based, human; conditions: four factors and the p53 shRNA; colonies counted day 28
[2] = tested on: p53-null MEF; test: iPS cell generation from p53-null MEF with forced expression of p21; assay type: cell-based, mouse
[3] = tested on: Fibroblasts (MEF) from a fetal p53 hetero-deficient mouse having the Nanog reporter; test: Establishment of iPS cells (GFP-positive colonies) from MEFs with 4 factors and a p53 inhibitor; assay type: cell-based; conditions: 4 factors; 6 nM in medium from day 6; counted on day 20; compared with cells treated with DMSO
Method: The effects of a p53 inhibitor on the efficiency of establishment of iPS cells were examined. The retrovirus used for reprogramming was prepared by introducing a retrovirus expression vector (pMXs-Oct3/4, pMXs-Sox2, pMXs-Klf4, pMXs-cMyc) into Plat-E cells that had been sown to a 6-well culture plate (Falcon) at 0.6×10^6 cells per well on the previous day. The culture broth used was DMEM/10% FCS (DMEM (Nacalai tesque) supplemented with 10% fetal bovine serum), and cultured at 37° C. and 5% CO2. For vector transfer, 4.5 μL of the FuGene6 transfection reagent (Roche) was placed in 100 μL of Opti-MEM I Reduced-Serum Medium (Invitrogen), and this mixture was allowed to stand at room temperature for 5 minutes. Thereafter, 1.5 μg of each expression vector was added, and the mixture was further allowed to stand at room temperature for 15 minutes, and then added to Plat-E culture broth. On day 2, the Plat-E supernatant was exchanged with a fresh supply of the medium; on day 3, the culture supernatant was recovered and filtered through a 0.45 μm sterile filter (Whatman), polybrene (Nacalai) was added to obtain a concentration of 4 μg/mL, and this was used as the viral liquid.
Fibroblasts (MEF) were isolated from a fetal p53 hetero-deficient mouse having the Nanog reporter (13.5 days after fertilization). […] GFP-positive colonies were counted on day 20. […]

[4] = tested on: Fibroblasts (MEFs) from a fetal p53 hetero-deficient mouse having a Nanog reporter; test: Establishment of iPS cells from MEFs with 4 or 3 factors and the dominant negative mutant p53P275S; assay type: cell-based; conditions: compared with mutation-free p53 or DsRedExpress
Method: The function of endogenous p53 was inhibited using a dominant negative mutant of p53, and its influence on the efficiency of establishment of iPS cells was investigated. The dominant negative mutant used was p53P275S, prepared by causing a point mutation of the proline at the position 275 located in the genome-binding region of p53 to serine (Annemieke de Vries (2002). PNAS 99, 2948-2953).
The retrovirus used for reprogramming was prepared by introducing retrovirus expression vector (pMXs-Oct3/4, pMXs-Sox2, pMXs-Klf4, pMXs-cMyc, pMXs-p53P275S) into Plat-E cells that had been sown to a 6-well culture plate (Falcon) at 0.6×10^6 cells per well on the previous day (for how to prepare pMXs-p53P275S, see Example 6 below). The culture broth used was DMEM/10% FCS (DMEM (Nacalai tesque) supplemented with 10% fetal bovine serum), and cultured at 37° C. and 5% CO2. For vector transfer, 4.5 μL of the FuGene6 transfection reagent (Roche) was placed in 100 μL of Opti-MEM I Reduced-Serum Medium (Invitrogen), and this mixture was allowed to stand at room temperature for 5 minutes. Thereafter, 1.5 μg of each expression vector was added, and the mixture was further allowed to stand at room temperature for 15 minutes, and then added to Plat-E culture broth. […]
GFP-positive colonies were counted on day 21 for the 4 factors, and on day 28 for the 3 factors. […]

[5] = tested on: Oct4-GFP, p53-heterozygous MEF; test: iPS generation by the three factors co-transduced with wild-type or mutant p53, p53-heterozygous MEFs; assay type: cell-based, mouse; conditions: retroviral co-transduction, counted 28 days after transduction
Excerpt: (§1) FIGS. 13A and 13B show iPS generation from p53 heterozygous or homozygous MEFs by the three factors co-transduced with wild-type or mutant p53. […] After retroviral transduction, 5000 cells were collected and GFP-positive colonies were counted 28 days after the transduction. Data of three independent experiments are shown. […] After retroviral transduction, 5000 live cells were collected and GFP-positive colonies were counted 28 days after the transduction. Data of two independent experiments are shown.
(§2) We used either the Nanog-GFP or Oct3/4-GFP reporter system for sensitive and specific identification of iPS cells (Okita K. et al. Nature 448, 313 (2007)). […] The cells were infected next day (day 0) with retrovirus made from Plat-E. On day 5, cells were reseeded either at one cell per well of 96-plates by a cell sorter (FACS Aria, Beckton Dekinson) or 5000 cells per 100 mm-dish. Puromycin selection ([…]) was initiated on day 13 in the four-factor protocol and on day 19 in the three factor protocol. Numbers of GFP positive colonies were determined on day 21 for the four-factor protocol and on day 28 in the three factor protocol.
(§3) First, we tested the effect of dominant negative mutants of p53 on the generation of iPS cells. […] After sequencing verification, cDNA was transferred to pMXs-gw by Gateway cloning technology (Invitrogen). […]

[6] = tested on: Nanog-GFP, p53-null MEFs; test: iPS generation by the three factors co-transduced with wild-type or mutant p53, p53-null MEFs; assay type: cell-based, mouse; conditions: retroviral co-transduction, counted 28 days after transduction
Excerpt: as §1, §2, §3

Question: How did the “counteraction of the effect of the p53 shRNA on iPS cell generation” value [1] turn out when “p21: cyclin-dependent kinase inhibitor 1A (p21, Cip1), p53 target gene, forcibly expressed by retrovirus” was run?
Answer: effectively counteracted

Question: What about the iPS cell generation [2] of the same molecule?
Answer: markedly decreased

Question: How did the “increase in the number of GFP-positive colonies” value (“increase in the number” for short) [3] turn out when O=[N+]([O-])c1ccc(-c2cn3c4c(sc3n2)CCCC4)cc1 [Pifithrin α, p-Nitro, Cyclic, 2-(4-Nitrophenyl)imidazo[2,1-b]-5,6,7,8-tetrahydrobenzothiazole] was run?
Answer: about 4 times

B1: p53P275S: dominant negative mutant of mouse p53, proline 275 to serine, expressed from retroviral vector pMXs-p53P275S (protein, UniProt P02340 1-390, looked up, variant P275S)
Cellular tumor antigen p53: MTAMEESQSDISLELPLSQETFSGLWKLLPPEDILPSPHCMDDLLLPQDVEEFFEGPSEALRVSGAPAAQDPVTETPGPVAPAPATPWPLSSFVPSQKTYQGNYGFHLGFLQSGTAKSVMCTYSPPLNKLFCQLAKTCPVQLWVSATPPAGSRVRAMAIYKKSQHMTEVVRRCPHHERCSDGDGLAPPQHLIRVEGNLYPEYLEDRQTFRHSVVVPYEPPEAGSEYTTIHYKYMCNSSCMGGMNRRPILTIITLEDSSGNLLGRDSFEVRVCACSGRDRRTEEENFRKKEVLCPELPPGSAKRALPTCTSASPPQKKKPLDGEYFTLKIRGRKRFEMFRELNEALELKDAHATEESGDSRAHSSYLKTKKGQSTSRHKKTMVKKVGPDSD
Question: With B1 as the molecule, how does the “increase in the number” value ([4]; 3 factors, counted on day 28) read?
Answer: about 3 times

Question: What about the “increase in the number” value ([4]; 4 factors, counted on day 21) of the same molecule?
Answer: about 4 times

Question: What about the “number of GFP-positive colonies / efficiency of iPS cell generation” value [5] of the same molecule?
Answer: substantial increase

B2: D278N: transactivation-negative mouse p53 mutant, aspartic acid 278 to asparagine, retrovirally expressed (protein, UniProt P02340 1-390, looked up, variant D278N)
Cellular tumor antigen p53: MTAMEESQSDISLELPLSQETFSGLWKLLPPEDILPSPHCMDDLLLPQDVEEFFEGPSEALRVSGAPAAQDPVTETPGPVAPAPATPWPLSSFVPSQKTYQGNYGFHLGFLQSGTAKSVMCTYSPPLNKLFCQLAKTCPVQLWVSATPPAGSRVRAMAIYKKSQHMTEVVRRCPHHERCSDGDGLAPPQHLIRVEGNLYPEYLEDRQTFRHSVVVPYEPPEAGSEYTTIHYKYMCNSSCMGGMNRRPILTIITLEDSSGNLLGRDSFEVRVCACPGRNRRTEEENFRKKEVLCPELPPGSAKRALPTCTSASPPQKKKPLDGEYFTLKIRGRKRFEMFRELNEALELKDAHATEESGDSRAHSSYLKTKKGQSTSRHKKTMVKKVGPDSD
Question: With B2 as the molecule, how does the “number of GFP-positive colonies” value [6] read?
Answer: weaker effects

B3: S58A: transactivation-negative mouse p53 mutant, serine 58 to alanine, retrovirally expressed (protein, UniProt P02340 1-390, looked up, variant S58A)
Cellular tumor antigen p53: MTAMEESQSDISLELPLSQETFSGLWKLLPPEDILPSPHCMDDLLLPQDVEEFFEGPAEALRVSGAPAAQDPVTETPGPVAPAPATPWPLSSFVPSQKTYQGNYGFHLGFLQSGTAKSVMCTYSPPLNKLFCQLAKTCPVQLWVSATPPAGSRVRAMAIYKKSQHMTEVVRRCPHHERCSDGDGLAPPQHLIRVEGNLYPEYLEDRQTFRHSVVVPYEPPEAGSEYTTIHYKYMCNSSCMGGMNRRPILTIITLEDSSGNLLGRDSFEVRVCACPGRDRRTEEENFRKKEVLCPELPPGSAKRALPTCTSASPPQKKKPLDGEYFTLKIRGRKRFEMFRELNEALELKDAHATEESGDSRAHSSYLKTKKGQSTSRHKKTMVKKVGPDSD
Question: With B3 as the molecule, how does the “number of GFP-positive colonies” value [6] read?
Answer: weaker effects
